Laboratory results taken from patent US20180265577A1 (Eli Lilly, published 2018).

Legend:
recombinant tau (rTau) [1] = molecular target: T1, recombinant tau (rTau) (UniProt P10636-8 1-441, limits assumed); assay: direct ELISA on rTau coated at 15 ng/ml; antibody stored 4 weeks at pH 6, 4 C; Study 1
T1 construct: Coated at 'high' (1 ug/mL, simulates aggregated tau) or 'low' (15 ng/mL, simulates tau monomer) concentration; also called rTau Monomer
Method: (§1) Formulated samples are incubated for four weeks at 4° C. or 40° C. in an accelerated degradation study. Following incubation, binding affinity of the exemplified tau monoclonal antibody of Example 1 to rTau (15 ng/ml) coated on 96-well plates is determined by direct ELISA following the ELISA procedure substantially as described above.

human tau aggregates [2] = molecular target: T2, human tau aggregates (human, UniProt P10636 2-758); assay: SPR (Biacore 2000), antibody captured on protein A, tau aggregate as analyte, 1:1 fit; not normalized for avidity
T2 construct: analyte in SPR; also called fibril tau; tau fibril aggregate
Method: (§2) Surface Plasmon Resonance (SPR) assay, measured with a BIACORE® 2000 instrument (primed with HBS-EP+ running buffer (GE Healthcare, 10 mM Hepes pH7.4+150 mM NaCl+3 mM EDTA+0.05% surfactant P20) at 25° C.), is used to measure binding of exemplified tau monoclonal antibody of Example 1 to both human monomeric (e.g., native or non-aggregate) tau and human tau aggregates (both having the amino acid sequence as set forth in SEQ ID NO:13). Binding of humanized MC-1 antibody construct (having the framework combination: 5-51 heavy-chain, A27 light-chain) to human monomeric tau and human tau aggregate is measured in the same manner.
(§3) Except as noted, all reagents and materials are from BIACORE® AB (Upsala, Sweden). A CMS chip containing immobilized protein A (generated using standard NHS-EDC amine coupling) on all four flow cells (FC) is used to employ a capture methodology. […]
(§4) Data of binding to tau aggregate is processed using standard double-referencing and fit to a 1:1 binding model using Biacore 2000 Evaluation software, version 4.1, to determine the association rate (kₒₙ, M⁻¹ s⁻¹ units), dissociation rate (koff, s⁻¹ units), and Rₘₐₓ (RU units). The equilibrium dissociation constant (KD) was calculated from the relationship KD=koff/kₒₙ, and is in molar units. Data of binding to monomeric tau cannot be determined accurately by SPR as described above due to rapid on- and off-rates. […]

[3] = molecular target: T3, tau aggregates in sarkosyl-insoluble brain homogenate preps of 4.5 to 5 month old P301S mice; assay: cell-based or functional assay
recombinant tau (rTau) [4] = molecular target: T1, recombinant tau (rTau); assay: direct ELISA on rTau coated at 15 ng/ml; antibody stored 4 weeks at pH 6, 4 C; Study 2
Method: as §1

recombinant tau (rTau) [5] = molecular target: T1, recombinant tau (rTau); assay: direct ELISA on rTau coated at 15 ng/ml; antibody stored 4 weeks at pH 4, 40 C; Study 2
Method: as §1

[6] = molecular target: T4, human monomeric (native or non-aggregate) tau (human, UniProt P10636 2-758); assay: SPR (Biacore 2000), antibody captured on protein A, tau as analyte, steady state fit
T4 construct: Full-length human tau in monomeric state; analyte in SPR; also called Monomeric Tau; monomeric tau
Method: as §2, §3, §4

recombinant tau (rTau) [7] = molecular target: T1, recombinant tau (rTau); assay: direct ELISA, rTau coated at high (1 ug/mL) against low (15 ng/mL) concentration
Method: (§5) 3690) at a concentration corresponding to 0.7 μg/ml of total tau. Plates are incubated overnight at 4° C., then washed three times with 150 μl of PBST (PBS containing 0.05% Tween-20), blocked in 100 μl BB3 (ImmunoChemistry Technology, p/n. 643) at room temperature for at least 1 hr (usually 2 hrs). Following blocking, the blocking buffer is removed from the wells. Exemplified tau monoclonal antibody of Example 1 and a humanized MC-1 antibody construct (having the framework combination: 5-51 heavy-chain, A27 light-chain) are diluted in 0.25% casein buffer to 1000 nM stock, then diluted serially 23 times with two fold dilutions. […] Reaction is stopped by adding 50 μl stop solution (2N H2SO4) and colorimetric signal is measured at 450 nm. […]
(§6) Selectivity of tau monoclonal antibody of Example 1 to tau aggregates versus tau monomer is determined by direct ELISA. […] The plates, coated with high or low concentrations of rTau, respectively, are exposed to exemplified tau monoclonal antibody of Example 1 and binding of exemplified tau monoclonal antibody to the respective concentrations of rTau is measured substantially as described in the ELISA assay above.

recombinant tau (rTau) [8] = molecular target: T1, recombinant tau (rTau); assay: direct ELISA on rTau coated at 15 ng/ml; antibody stored 4 weeks at pH 4, 40 C; Study 1
Method: as §1

[9] = molecular target: T5, purified tau fibrils from AD brain homogenates (human, UniProt P10636-8 2-441, limits assumed); assay: direct ELISA on coated purified AD tau fibrils
T5 construct: Native brain-derived aggregated tau, coated at 0.7 ug/ml total tau; also called Purified AD Tau Fibrils; aggregate tau fibrils from AD brain homogenates
Method: (§7) Purified tau fibrils (50 μl) in PBS are coated on wells of 96-well plates (Coastar, p/n. 3690) at a concentration corresponding to 0.7 μg/ml of total tau. Plates are incubated overnight at 4° C., then washed three times with 150 μl of PBST (PBS containing 0.05% Tween-20), blocked in 100 μl BB3 (ImmunoChemistry Technology, p/n. 643) at room temperature for at least 1 hr (usually 2 hrs). Following blocking, the blocking buffer is removed from the wells. Exemplified tau monoclonal antibody of Example 1 and a humanized MC-1 antibody construct (having the framework combination: 5-51 heavy-chain, A27 light-chain) are diluted in 0.25% casein buffer to 1000 nM stock, then diluted serially 23 times with two fold dilutions. 50 μl of stock and serially diluted antibody (either exemplified tau monoclonal of Example 1 or humanized MC-1 antibody construct) are added to separate wells and incubated for 2 hours at room temperature, after which the plate is washed four times with 200 μl PBST per well. 50 μl of anti-human IgG-HRP antibodies (diluted at 1:4000 into 0.25% casein buffer) is added and incubated for 1 hour at room temperature, after which the plate is washed with 200 μl PBST per well 4 times. 50 μl of TMB/H2O2 is added and incubated at room temperature for about 10 minutes. Reaction is stopped by adding 50 μl stop solution (2N H2SO4) and colorimetric signal is measured at 450 nm. […]

[10] = molecular target: T3, tau aggregates in sarkosyl-insoluble …; assay: cell-based or functional assay; remark: listed apart in the source
[11] = molecular target: T5, purified tau fibrils from AD brain …; assay: direct ELISA on coated purified AD tau fibrils (0.7 ug/ml total tau)
Method: as §7

recombinant tau (rTau) [12] = molecular target: T1, recombinant tau (rTau); assay: direct ELISA, rTau coated at 'High' concentration (1 ug/mL), simulates aggregated tau
Method: as §5, §6

recombinant tau (rTau) [13] = molecular target: T1, recombinant tau (rTau); assay: direct ELISA on rTau coated at 15 ng/ml; antibody stored 4 weeks at pH 6, 40 C; Study 2
Method: as §1

human tau aggregates [14] = molecular target: T2, human tau aggregates; assay: SPR (Biacore 2000), antibody captured on protein A, tau aggregate as analyte, 1:1 fit
Method: as §2, §3, §4

recombinant tau (rTau) [15] = molecular target: T1, recombinant tau (rTau); assay: direct ELISA, rTau coated at 'Low' concentration (15 ng/mL), simulates tau monomer
Method: as §5, §6

recombinant tau (rTau) [16] = molecular target: T1, recombinant tau (rTau); assay: direct ELISA on rTau coated at 15 ng/ml; antibody stored 4 weeks at pH 6, 40 C; Study 1
Method: as §1

T1 sequence (P10636 other isoform, or with tags, fused parts or gaps limits assumed): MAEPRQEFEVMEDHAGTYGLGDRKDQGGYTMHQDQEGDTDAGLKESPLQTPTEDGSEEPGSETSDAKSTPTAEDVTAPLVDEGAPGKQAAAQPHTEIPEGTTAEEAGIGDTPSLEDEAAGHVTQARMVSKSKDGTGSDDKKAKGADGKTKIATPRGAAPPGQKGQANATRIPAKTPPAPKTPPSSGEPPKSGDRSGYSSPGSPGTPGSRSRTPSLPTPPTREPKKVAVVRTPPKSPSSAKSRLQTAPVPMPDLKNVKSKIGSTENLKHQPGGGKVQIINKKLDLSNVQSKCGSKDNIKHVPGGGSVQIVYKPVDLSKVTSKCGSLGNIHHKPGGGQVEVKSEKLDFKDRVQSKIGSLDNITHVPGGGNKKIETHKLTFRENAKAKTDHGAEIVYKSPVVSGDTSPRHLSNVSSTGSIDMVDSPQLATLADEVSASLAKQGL
T2 sequence (P10636 other isoform, or with tags, fused parts or gaps limits assumed): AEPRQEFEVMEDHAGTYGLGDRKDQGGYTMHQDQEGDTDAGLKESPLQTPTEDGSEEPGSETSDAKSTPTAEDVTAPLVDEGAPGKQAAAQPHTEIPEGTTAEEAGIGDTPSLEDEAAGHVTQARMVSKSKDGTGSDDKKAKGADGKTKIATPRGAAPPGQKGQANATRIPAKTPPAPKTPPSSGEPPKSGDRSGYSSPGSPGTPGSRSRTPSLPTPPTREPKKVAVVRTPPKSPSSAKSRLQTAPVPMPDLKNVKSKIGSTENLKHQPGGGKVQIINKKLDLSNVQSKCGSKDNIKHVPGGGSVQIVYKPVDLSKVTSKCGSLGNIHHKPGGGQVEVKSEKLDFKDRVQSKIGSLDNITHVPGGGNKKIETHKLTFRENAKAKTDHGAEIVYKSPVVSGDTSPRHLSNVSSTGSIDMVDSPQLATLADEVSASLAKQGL

B1: exemplified tau monoclonal antibody of Example 1 (antibody, human IgG4 S228P, kappa, F234A L235A, V domains shown)
VH: EVQLVQSGAEVKKPGESLKISCKGSGYTFSNYWIEWVRQMPGKGLEWMGEILPGSDSIKYEKNFKGQVTISADKSISTAYLQWSSLKASDTAMYYCARRGNYVDDWGQGTLVTVSS
VL: EIVLTQSPGTLSLSPGERATLSCRSSQSLVHSNQNTYLHWYQQKPGQAPRLLIYKVDNRFSGIPDRFSGSGSGTDFTLTISRLEPEDFAVYYCSQSTLVPLTFGGGTKVEIKR
notes: Humanized IgG4 (HC framework 5-51), kappa LC (framework A27); expressed in CHO cells; Carries seven CDR changes relative to murine MC-1; also called exemplified engineered tau monoclonal antibody
**Q.** What does the source list for B1?
**A.** EC50 (recombinant tau (rTau) [1]): 0.926 nM; Kd (human tau aggregates [2]): < 0.22 nM; fold improvement in the inhibition of induced tau aggregate propagation (against humanized MC-1 antibody construct) [3]: ~30 fold; EC50 (recombinant tau (rTau) [4]): 0.636 nM; EC50 (recombinant tau (rTau) [5]): 0.277 nM; Kd [6]: 235 nM; fold improved affinity (as measured by EC50) to aggregate tau over monomeric tau (recombinant tau (rTau) [7]): 120 fold; EC50 (recombinant tau (rTau) [8]): 0.414 nM; fold improved affinity (as measured by EC50) over humanized MC-1 antibody construct [9]: 60 fold; EC50 (representing inhibition of AT8-Positive Tau Aggregate propagation (ng/mL)) [10]: 16 ng/mL; EC50 [11]: 6.8 pM; EC50 (recombinant tau (rTau) [12]): 6 pM; EC50 (recombinant tau (rTau) [13]): 0.667 nM; koff (human tau aggregates [14]): < 1e-05 s⁻¹; kon (human tau aggregates [14]): 45900 M⁻¹ s⁻¹; EC50 (recombinant tau (rTau) [15]): 0.723 nM; EC50 (recombinant tau (rTau) [16]): 0.754 nM
